Key:
AncSZ = assay: phosphorylation enrichment, bacterial display (enrichment ratio); higher = better substrate or ligand; peptides without Tyr show the background
EPHB1 = EPHB1 (UniProt P54762); assay: as above
EPHB2 = EPHB2 (UniProt P29323); assay: as above
FGFR1 = FGFR1 (UniProt P11362); assay: as above
FGFR3 = FGFR3 (UniProt P22607); assay: as above
Fer (mouse) = assay: as above
Fes = Fes (UniProt P07332); assay: as above
Fyn = Fyn (UniProt P06241); assay: as above
Hck = Hck (UniProt P08631); assay: as above
Jak2 = Jak2 (UniProt O60674); assay: as above
Chain of Jak2 (O60674 whole entry, looked up): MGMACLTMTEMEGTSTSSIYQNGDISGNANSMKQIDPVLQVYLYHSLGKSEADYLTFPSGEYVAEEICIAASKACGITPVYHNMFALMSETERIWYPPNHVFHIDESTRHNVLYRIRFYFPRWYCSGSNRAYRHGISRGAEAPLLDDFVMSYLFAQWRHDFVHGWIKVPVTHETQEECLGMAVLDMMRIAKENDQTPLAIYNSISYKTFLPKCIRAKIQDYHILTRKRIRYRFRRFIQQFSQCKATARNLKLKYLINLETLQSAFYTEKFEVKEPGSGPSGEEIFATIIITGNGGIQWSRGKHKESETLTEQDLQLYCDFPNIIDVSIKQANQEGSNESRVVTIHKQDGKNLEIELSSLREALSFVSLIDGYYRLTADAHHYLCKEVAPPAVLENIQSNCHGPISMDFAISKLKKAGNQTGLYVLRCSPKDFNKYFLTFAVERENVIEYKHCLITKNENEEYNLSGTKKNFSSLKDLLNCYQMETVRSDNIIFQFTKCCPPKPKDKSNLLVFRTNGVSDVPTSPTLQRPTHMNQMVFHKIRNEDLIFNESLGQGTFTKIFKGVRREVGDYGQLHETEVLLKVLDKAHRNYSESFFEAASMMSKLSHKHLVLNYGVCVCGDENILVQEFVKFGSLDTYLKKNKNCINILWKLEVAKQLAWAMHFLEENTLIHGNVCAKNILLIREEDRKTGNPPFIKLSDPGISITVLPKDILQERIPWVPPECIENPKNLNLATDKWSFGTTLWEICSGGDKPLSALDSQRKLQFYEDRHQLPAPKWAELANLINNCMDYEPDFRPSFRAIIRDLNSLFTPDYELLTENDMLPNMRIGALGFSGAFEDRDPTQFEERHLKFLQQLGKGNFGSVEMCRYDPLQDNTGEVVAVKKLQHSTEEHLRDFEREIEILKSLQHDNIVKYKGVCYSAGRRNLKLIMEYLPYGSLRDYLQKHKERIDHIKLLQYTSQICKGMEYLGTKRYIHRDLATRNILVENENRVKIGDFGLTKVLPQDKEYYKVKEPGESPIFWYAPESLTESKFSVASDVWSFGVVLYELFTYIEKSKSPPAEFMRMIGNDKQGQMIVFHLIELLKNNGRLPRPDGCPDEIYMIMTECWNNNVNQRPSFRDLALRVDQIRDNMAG

MERTK = MERTK (UniProt Q12866); assay: as above
Chain of MERTK (Q12866 whole entry, looked up): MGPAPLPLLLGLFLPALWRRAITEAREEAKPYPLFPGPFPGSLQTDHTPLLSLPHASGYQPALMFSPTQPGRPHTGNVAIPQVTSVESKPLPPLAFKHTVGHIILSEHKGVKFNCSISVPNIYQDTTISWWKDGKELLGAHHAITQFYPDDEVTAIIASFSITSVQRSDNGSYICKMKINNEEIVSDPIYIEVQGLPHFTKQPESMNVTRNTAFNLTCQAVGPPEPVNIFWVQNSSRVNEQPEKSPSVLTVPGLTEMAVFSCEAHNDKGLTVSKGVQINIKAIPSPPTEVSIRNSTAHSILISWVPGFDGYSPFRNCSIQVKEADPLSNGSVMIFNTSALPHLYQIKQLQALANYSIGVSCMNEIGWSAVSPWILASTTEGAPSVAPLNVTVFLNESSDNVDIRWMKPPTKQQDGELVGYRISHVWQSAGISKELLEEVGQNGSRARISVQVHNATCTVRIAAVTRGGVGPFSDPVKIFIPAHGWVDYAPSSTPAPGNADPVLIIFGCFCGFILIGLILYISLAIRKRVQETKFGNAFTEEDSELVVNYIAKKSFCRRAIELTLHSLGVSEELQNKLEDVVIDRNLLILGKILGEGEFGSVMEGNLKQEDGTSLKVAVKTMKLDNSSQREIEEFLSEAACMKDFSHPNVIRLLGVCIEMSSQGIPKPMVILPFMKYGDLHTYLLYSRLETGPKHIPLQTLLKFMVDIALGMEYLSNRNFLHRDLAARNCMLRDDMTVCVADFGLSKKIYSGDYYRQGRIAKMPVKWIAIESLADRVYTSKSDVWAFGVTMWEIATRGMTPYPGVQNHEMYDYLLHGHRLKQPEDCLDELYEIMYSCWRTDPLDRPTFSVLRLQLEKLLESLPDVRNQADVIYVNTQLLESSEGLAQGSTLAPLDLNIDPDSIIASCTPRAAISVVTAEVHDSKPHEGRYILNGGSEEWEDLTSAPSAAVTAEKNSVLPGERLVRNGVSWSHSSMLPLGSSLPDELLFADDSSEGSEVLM

c-Abl (mouse) = assay: as above
c-Src = assay: as above
Grb2 SH2 = Grb2 SH2 (UniProt P62993); assay: SH2 binding enrichment of the phosphorylated peptide, bacterial display (enrichment ratio); higher = better substrate or ligand; peptides without Tyr show the background
Chain of Grb2 SH2 (P62993 whole entry, looked up): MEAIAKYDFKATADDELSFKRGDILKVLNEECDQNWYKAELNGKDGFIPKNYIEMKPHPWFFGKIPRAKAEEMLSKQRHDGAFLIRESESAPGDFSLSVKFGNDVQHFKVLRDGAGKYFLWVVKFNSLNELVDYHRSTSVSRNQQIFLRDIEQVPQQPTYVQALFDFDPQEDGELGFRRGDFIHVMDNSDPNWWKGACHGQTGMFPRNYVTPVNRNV

SHP2-C SH2 = assay: as above
c-Src SH2 = assay: as above
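Throughout, for SH2 binding enrichment of the phosphorylated peptide, bacterial display: peptide library displayed on the E. coli surface as eCPX fusions, selected cells deep-sequenced, score is each peptide's frequency after selection divided by its frequency in the input.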
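Throughout, for phosphorylation enrichment, bacterial display: 11-residue human phosphosite peptides and single-mutation variants displayed on the E. coli surface, counted by deep sequencing, each peptide's frequency after selection divided by its frequency in the unselected input library; frequency after pTyr selection over input frequency; kinase dosed for 20-30% of maximal phosphorylation in three min.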

Chain of Fyn (P06241 whole entry, looked up): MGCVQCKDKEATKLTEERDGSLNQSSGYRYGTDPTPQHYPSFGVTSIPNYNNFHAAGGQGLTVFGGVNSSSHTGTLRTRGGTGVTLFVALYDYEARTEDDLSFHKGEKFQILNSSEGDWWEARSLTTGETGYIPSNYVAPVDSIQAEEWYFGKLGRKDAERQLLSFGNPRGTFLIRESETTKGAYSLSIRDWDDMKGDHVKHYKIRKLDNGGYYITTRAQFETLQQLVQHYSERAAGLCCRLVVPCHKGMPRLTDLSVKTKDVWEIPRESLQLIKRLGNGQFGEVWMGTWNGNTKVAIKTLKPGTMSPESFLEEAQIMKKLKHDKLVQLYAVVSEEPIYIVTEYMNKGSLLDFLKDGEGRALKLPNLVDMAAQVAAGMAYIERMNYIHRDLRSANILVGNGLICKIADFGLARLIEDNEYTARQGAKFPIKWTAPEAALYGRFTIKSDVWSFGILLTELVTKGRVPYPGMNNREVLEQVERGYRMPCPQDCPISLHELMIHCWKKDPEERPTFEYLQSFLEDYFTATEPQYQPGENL
Chain of EPHB2 (P29323 whole entry, looked up): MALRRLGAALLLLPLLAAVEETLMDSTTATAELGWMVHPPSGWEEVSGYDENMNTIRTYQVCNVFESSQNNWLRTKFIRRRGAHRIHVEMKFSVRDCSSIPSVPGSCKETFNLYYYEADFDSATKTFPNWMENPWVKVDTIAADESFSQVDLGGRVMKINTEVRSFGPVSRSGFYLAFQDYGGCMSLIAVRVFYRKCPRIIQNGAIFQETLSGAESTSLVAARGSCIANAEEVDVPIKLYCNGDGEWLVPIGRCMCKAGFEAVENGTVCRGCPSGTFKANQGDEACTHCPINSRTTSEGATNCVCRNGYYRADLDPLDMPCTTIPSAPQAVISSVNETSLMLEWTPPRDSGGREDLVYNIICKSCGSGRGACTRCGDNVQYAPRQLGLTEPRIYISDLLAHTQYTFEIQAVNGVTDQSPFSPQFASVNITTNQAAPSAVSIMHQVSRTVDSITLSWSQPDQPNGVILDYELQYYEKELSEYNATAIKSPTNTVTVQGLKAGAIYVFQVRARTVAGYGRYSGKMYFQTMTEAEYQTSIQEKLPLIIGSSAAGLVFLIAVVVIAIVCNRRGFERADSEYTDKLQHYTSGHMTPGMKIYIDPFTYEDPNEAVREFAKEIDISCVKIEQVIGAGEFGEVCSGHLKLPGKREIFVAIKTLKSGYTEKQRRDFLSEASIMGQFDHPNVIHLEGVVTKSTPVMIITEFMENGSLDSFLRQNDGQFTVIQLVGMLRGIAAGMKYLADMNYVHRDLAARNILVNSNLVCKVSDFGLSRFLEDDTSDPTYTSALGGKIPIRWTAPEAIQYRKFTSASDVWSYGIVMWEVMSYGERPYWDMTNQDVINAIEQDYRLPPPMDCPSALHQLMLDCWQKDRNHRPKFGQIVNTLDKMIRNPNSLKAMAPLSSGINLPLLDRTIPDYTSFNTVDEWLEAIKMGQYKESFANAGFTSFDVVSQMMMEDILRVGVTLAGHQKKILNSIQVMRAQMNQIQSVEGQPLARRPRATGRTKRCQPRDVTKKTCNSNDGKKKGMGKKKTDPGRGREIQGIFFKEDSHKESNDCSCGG
Chain of EPHB1 (P54762 whole entry, looked up): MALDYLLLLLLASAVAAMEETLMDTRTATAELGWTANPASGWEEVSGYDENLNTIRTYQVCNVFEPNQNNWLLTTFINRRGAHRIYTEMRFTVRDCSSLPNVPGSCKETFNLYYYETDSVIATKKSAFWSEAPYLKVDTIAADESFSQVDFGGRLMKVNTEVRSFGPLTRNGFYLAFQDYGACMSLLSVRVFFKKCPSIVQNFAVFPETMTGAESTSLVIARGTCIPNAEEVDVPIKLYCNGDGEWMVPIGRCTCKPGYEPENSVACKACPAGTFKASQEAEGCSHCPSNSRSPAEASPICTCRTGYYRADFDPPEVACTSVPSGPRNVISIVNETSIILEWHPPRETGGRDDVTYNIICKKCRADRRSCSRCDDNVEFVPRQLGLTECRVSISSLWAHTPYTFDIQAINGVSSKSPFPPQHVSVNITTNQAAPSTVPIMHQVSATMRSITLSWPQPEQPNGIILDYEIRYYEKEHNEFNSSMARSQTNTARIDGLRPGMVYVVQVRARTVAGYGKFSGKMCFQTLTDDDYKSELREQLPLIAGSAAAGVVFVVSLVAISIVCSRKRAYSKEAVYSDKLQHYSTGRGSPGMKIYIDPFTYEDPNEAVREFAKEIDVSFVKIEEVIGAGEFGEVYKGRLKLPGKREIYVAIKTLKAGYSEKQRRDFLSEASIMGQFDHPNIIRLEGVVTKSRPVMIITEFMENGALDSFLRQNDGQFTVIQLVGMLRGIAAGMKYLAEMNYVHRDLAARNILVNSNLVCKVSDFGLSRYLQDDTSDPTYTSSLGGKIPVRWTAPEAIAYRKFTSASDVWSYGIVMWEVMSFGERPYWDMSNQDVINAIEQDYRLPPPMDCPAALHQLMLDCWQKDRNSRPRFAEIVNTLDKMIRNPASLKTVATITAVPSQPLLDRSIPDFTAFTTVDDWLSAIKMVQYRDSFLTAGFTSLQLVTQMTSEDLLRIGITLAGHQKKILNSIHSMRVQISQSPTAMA

Sequence	phosphorylation enrichment (AncSZ)	phosphorylation enrichment (EPHB1)	phosphorylation enrichment (EPHB2)	phosphorylation enrichment (FGFR1)	phosphorylation enrichment (FGFR3)	phosphorylation enrichment (Fer (mouse))	phosphorylation enrichment (Fes)	phosphorylation enrichment (Fyn)	phosphorylation enrichment (Hck)	phosphorylation enrichment (Jak2)	phosphorylation enrichment (MERTK)	phosphorylation enrichment (c-Abl (mouse))	phosphorylation enrichment (c-Src)	SH2 binding enrichment (Grb2 SH2)	SH2 binding enrichment (SHP2-C SH2)	SH2 binding enrichment (c-Src SH2)
LDVGEYCVPRG [BEX1_Y43_A40V]	5.36	2.26	2.47	0.982	1.23	0.842	1.21	1.09	0.853	1.32	0.568	3.73	0.539	0.755	0.698	0.503
LDYNEYFRNLN [HPRT1_Y198_D201N]	2.08	0.559	0.751	0.596	0.844	0.48	1.14	0.49	0.69	1.79	0.382	0.849	0.657	0.81	0.967	0.507
LEGAKYVSHGA [ASS1_Y113_R108L]	0.835	0.682	1.03	1	1.17	0.928	1.14	0.973	0.606	0.696	0.551	0.852	0.605	1.18	0.516	0.446
LEHCQYVTQKV [ALDOB_Y204_E207Q]	1.01	0.818	0.924	0.656	0.763	0.648	1.04	0.47	0.507	1.03	0.401	0.727	0.617	0.957	1.18	0.731
LERFIYNPEEF [HLA-DPB1_Y59_R61P_YF]	2.02	0.738	0.708	0.934	1.71	0.927	1.75	1.75	1.33	1.32	0.618	1.09	2.4	0.791	0.866	0.399
LFHENYNAGTY [CFI_Y421_I416L]	1.06	0.521	0.626	0.78	0.633	0.822	1.1	0.605	0.527	0.976	0.537	1.22	1.3	0.9	0.818	0.704
LFLALYTGLVH [PIGB_Y402]	2.04	1.26	1.4	0.775	1.39	1.46	2.02	1.42	2.29	1.53	1.2	1.38	2.11	1.43	0.7	1.51
LGPSDYFGETA [PRKAR1A_Y323_I327T]	0.964	0.597	0.425	0.585	0.636	0.422	0.808	0.518	0.509	0.749	0.398	0.448	0.55	0.817	0.499	0.59
LGSVVYAQSKE [KCNQ2_Y226_H228Q]	1.61	1.86	0.97	0.852	1.39	0.99	1.31	1.08	1.29	1.19	1.1	1.24	1.08	0.974	1.6	0.528
LKGQVYILGWE [ASS1_Y359_R363W]	1.14	0.655	0.57	0.544	0.81	0.642	1.4	0.575	0.508	1.14	0.428	0.804	0.575	1.01	0.827	0.684
LLANAYIYDVQ [L1CAM_Y418_V421D]	1.17	1.46	1.56	0.391	0.616	0.802	1.27	6.7	4.13	1.22	2.71	0.538	3.69	0.803	1.13	0.818
LLKAGYQGVLR [TTPA_Y100_H101Q]	0.502	0.648	0.366	0.67	0.565	0.425	0.73	0.265	0.713	0.55	0.459	0.442	0.311	1.38	1.3	1.23
LLKANYELLNA [POLR3A_Y714_K713N]	0.975	1.28	0.804	0.457	0.78	0.551	0.865	0.431	0.459	0.857	0.976	0.949	0.814	0.834	0.973	1.51
LMIKEYLTKEL [BAG3_Y457_E455K]	0.867	0.524	0.612	0.437	0.72	0.491	1.36	0.469	0.571	0.896	0.411	0.666	0.353	1.03	1	0.621
LMLVLYGRIFR [HTR1A_Y215]	1.84	0.646	0.958	0.372	0.809	0.768	1.24	0.715	0.495	1.48	0.475	0.791	0.644	1.54	1.25	1.42
LNECHYGALIG [BPGM_Y92_R90C]	0.996	0.682	0.878	0.701	0.886	1.35	1.38	4.07	2.93	0.885	0.741	1.4	3.61	0.681	0.446	0.334
LNERHYGALIG [BPGM_Y92]	0.534	0.319	0.469	0.42	0.47	0.459	0.609	0.514	0.561	0.571	0.536	0.461	0.639	0.871	0.74	0.613
LNSFIYSLRNR [OR1A1_Y288_P285S]	1.3	0.617	0.653	0.618	0.671	0.693	2.02	2.42	3.1	1.02	0.733	0.866	4.01	0.732	0.578	0.59
LPHVIYCRLWR [SMAD2_Y128]	1.05	1.76	0.758	0.414	0.555	0.434	0.814	1.66	2.31	0.822	0.871	1.47	2.05	0.991	0.723	0.679
LPKVSCVKAID [GLRA1_Y307_Y307C]	1.19	0.794	0.711	0.734	1.14	0.577	1.38	0.655	0.695	0.945	0.501	0.803	0.386	0.713	0.35	0.697
LPKVSYVKAID [GLRA1_Y307]	0.629	0.402	0.411	0.423	0.433	0.34	0.652	0.391	0.434	0.563	0.542	0.444	0.338	0.868	0.768	0.459
LPPGTYPSDFT [UNC5B_Y511_A516T]	1.58	0.694	0.536	0.717	0.85	0.403	1.25	0.82	0.613	0.571	1.04	1.78	0.697	0.885	0.533	0.445
LQTYHYHGHSM [PDHA1_Y289_R288H]	0.974	0.689	0.636	1.16	0.963	0.75	0.943	0.671	0.742	1.52	0.911	0.559	0.916	1.36	2	1.29
LRNIDYHRLDG [ATRX_Y2083_Y2084H]	0.497	0.42	0.405	0.511	0.617	0.571	0.606	0.342	0.33	0.632	0.379	0.521	0.297	0.725	1.25	0.714
LRVKMYNFLRS [ADGRG7_Y760]	2.63	1.41	2.15	1.71	2.58	1.08	3.22	1.75	1.59	1.47	1.19	1.25	0.868	1.24	0.623	1.1
LSDGPYSNPFE [EPOR_Y485_YF]	1.47	0.547	0.628	0.491	0.614	0.822	1.16	1.77	0.843	0.862	0.534	0.701	0.856	0.82	0.486	1.91
LSDGPYSSPYE [EPOR_Y485_N487S]	2.3	1.2	0.95	0.421	1.61	0.831	1.39	0.882	0.739	1.2	0.523	1.18	1.09	0.808	0.762	3.98
LSIQCYLRASD [HMGCS2_Y262_L266S]	3.81	3.37	3.31	1.99	5.23	2.44	4.92	2.73	2.46	2.95	1.2	1.87	0.998	0.732	0.795	0.443
LSRDVYEEDSF [RET_Y900_YF]	1.77	1.07	0.908	0.813	0.89	0.946	2.02	0.573	0.875	1.7	0.819	1.57	0.828	0.778	0.805	0.769

Reference: the supplement of paper PMC10065799, “High-throughput profiling of sequence recognition by tyrosine kinases and SH2 domains using bacterial peptide display” (eLife, 2023)
